The values that follow come from patent publication US20060251646A1 (CELLACT PHARMA, published 2006).

Assay [1] concerns the target T1, peptide 6 (TIRC7 derived peptide DLPDASVNGWSSDE).
T1 construct: Fragment of TIRC7, used coated on ELISA plates at 100 ng peptide/well; also called Peptid6
T1 peptide: DLPDASVNGWSSDE
The assay is described as follows: method not stated.

Assay [2] addresses human T-cell immune response cDNA 7 (TIRC7) protein (human, UniProt Q13488 1-830). Nature of the assay: cell-based or functional assay.

By Kd is commonly meant a measure of binding affinity in units of concentration. Low values mean a tighter complex, high ones a looser complex.

Sequence of human T-cell immune response cDNA 7 (TIRC7) protein (Q13488 whole entry): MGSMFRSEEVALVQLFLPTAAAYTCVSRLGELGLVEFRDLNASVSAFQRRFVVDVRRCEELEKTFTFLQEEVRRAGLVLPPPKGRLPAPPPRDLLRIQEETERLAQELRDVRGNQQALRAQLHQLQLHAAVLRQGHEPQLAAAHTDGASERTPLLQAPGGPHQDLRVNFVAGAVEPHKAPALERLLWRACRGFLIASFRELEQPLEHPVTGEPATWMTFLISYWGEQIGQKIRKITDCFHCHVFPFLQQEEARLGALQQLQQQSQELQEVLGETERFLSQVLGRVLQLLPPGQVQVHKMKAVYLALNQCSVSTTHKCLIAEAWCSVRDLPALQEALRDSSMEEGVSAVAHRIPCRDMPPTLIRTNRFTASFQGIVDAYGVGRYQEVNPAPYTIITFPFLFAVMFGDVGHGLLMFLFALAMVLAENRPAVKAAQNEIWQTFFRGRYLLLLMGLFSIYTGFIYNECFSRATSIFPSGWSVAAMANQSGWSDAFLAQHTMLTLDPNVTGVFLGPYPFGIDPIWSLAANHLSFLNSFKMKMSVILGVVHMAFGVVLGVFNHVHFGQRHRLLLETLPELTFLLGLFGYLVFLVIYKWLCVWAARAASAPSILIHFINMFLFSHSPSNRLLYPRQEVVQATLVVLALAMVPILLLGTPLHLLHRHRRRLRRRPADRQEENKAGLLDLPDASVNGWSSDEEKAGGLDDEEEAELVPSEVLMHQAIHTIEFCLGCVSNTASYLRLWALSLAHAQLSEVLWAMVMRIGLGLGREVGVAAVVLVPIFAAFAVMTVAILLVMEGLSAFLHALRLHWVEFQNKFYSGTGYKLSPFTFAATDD

B1: murine Neliximab (murine anti-human TIRC7 monoclonal antibody, clone #17) (antibody, V domains shown)
VH: EVQLQQSGPELVKPGASVKMSCKASGYTFTTYVMHWVKQKPGQGLEWIGYINPYNDGTNYNEKFKGKATLTSDKSSSTAYMELSTLTSEDSAVYYCAEFITKTVGGSNWYLDVWGAGTTVTVSS
VL: QIVLTQSPAIMSASPGEKVTMTCSASSSISYIHWFQQKPGTSPKRWIYDTSKLPSGVPARFSGSGSGTSYSLTISSMEAEDAATYYCHQRSSYTWTFGGGTKLEIKR
notes: also called murine anti-human TIRC7 mAb; murine mAb
Consider B1, for which, in assay [1], the Kd was determined as 1 nM. Also, in assay [2], the “Inhibition of cytokine secretion (IFNγ) calculated relative to the isotype control at the same concentration, PHA-stimulated human PBMC, 10 µg/ml murine Neliximab” value was 78%; the “Inhibition of cytokine secretion (IFNγ) calculated relative to the isotype control at the same concentration, PHA-stimulated human PBMC, 50 µg/ml murine Neliximab” value was 39%; the “Inhibition of cytokine secretion (IFNγ) calculated relative to the isotype control at the same concentration, PHA-stimulated human PBMC, 100 µg/ml murine Neliximab” value was 20%; the “Inhibition of cytokine secretion (IFNγ) calculated relative to the isotype control at the same concentration, PHA-stimulated human PBMC, 200 µg/ml murine Neliximab” value is 3%.

B2: Neliximab (chimeric murine/human anti-human TIRC7 monoclonal antibody) (antibody, V domains shown)
VH: B1 VH
VL: QIVLTQSPAIMSASPGEKVTMTCSASSSISYIHWFQQKPGTSPKRWIYDTSKLPSGVPARFSGSGSGTSYSLTISSMEAEDAATYYCHQRSSYTWTFGGGTKLEIK
notes: also called chimeric Neliximab; chimeric anti-human TIRC7 mAb
Turning to B2, the affinity in assay [1], expressed as Kd, was 1 nM.
